Measured values taken from US20240043504A1 (published 2024).

B1: mAb10930 (antibody, V domains shown)
VH: EVQLVESGGGLVQPGRSLRLSCAASGFTFDDYAMYWVRQAPGKGLEWVSGISWNSGSIGYADSVKGRFTISRDNAKNSLYLQMNSLRAADTALYYCAKDKDWNSRGYYYYGMDVWGQGTTVTVSS
VL: not shown
B2: mAb10936 (antibody, V domains shown)
VH: QVQLVESGGGVVQPGRSLRLSCAASGFTFRNYGMHWVRQAPGKGLEWVSVIWYDGSNRYYADSVKGRFTISRDTSKNTLYLQMNSLRAEDTAVYYCARDPPITGTTGGDAFDIWGQGTMVTVSS
VL: not shown
B3: mAb10964 (antibody, V domains shown)
VH: QVQLQESGPGLVKPSETLSLTCTVSGGSINNYYWIWIRQPPGKGLEWIGYIYHSGSTNYNPSLKSRVTISVDTSKNQFSLKVSSVTAADTAVYYCANMVRGVYEDDYWGQGTLVTVSS
VL: DIQMTQSPSSLSASVGDRVTITCRASQSISNYLNWYQQKPGKAPKLLIFAASSLRSGVPSRFSGSGSGTDFTLTISSLHPEDFATYYCQQNYNTPLTFGPGTKVDIKR
B4: mAb10923 (antibody, V domains shown)
VH: QVQLVQSGAEVKKPGASVKVSCKASGYTFINYYIHWVRQAPGQGLEWMGWINPNSGGTNYAQKFQGRVTMTRDTSISTAYMELSRLRSDDTAVYYCAIITIFGVVTWFDPWGQGTLVTVSS
VL: not shown
B5: mAb10982 (antibody, V domains shown)
VH: EVQLVESGGGLVQPGGSLRLSCAASGLTVSSNYMSWVRQAPGKGLEWVSVIYSGGTTYYADSVKGRFTISRHNSKNTLSLQMNSLRAEDTAVYYCARGEGANYYGMDVWGQGTTVTVSS
VL: QSVLTQPPSVSGAPGQRVTISCTGSSSNIGTGYDVHWYQQLPGTAPKLLIYGNSNRPSGVPDRFSGSKSGTSASLAITGLQAEDEADYYCQSYDSSLSGYVVFGGGTKLTVLG
B6: mAb10986 (antibody, V domains shown)
VH: EVQLVESGGGLVQPGGSLRLSCAASEFTVSSNYMSWVRQAPGKGLEWVSVIYSGGSTFYADSVKGRFTISRDNSKNTLYLQMNSLRAEDTAVYYCARALPYGDLHFDYWGQGTLVTVSS
VL: QSVLTQPPSVSGAPGQRVTISCTGSSSNIGTGYDVHWYQQLPGTAPKLLIYGNTNRPSGVPDRFSGSKSGTSASLAITGLQAEDEADYYCQSYDSSLSDSYVFGTGTKVTVLG
B7: mAb10985 (antibody, V domains shown)
VH: EVQLVESGGGLVQPGRSLRLSCAASGFTFDDYAMHWVRQAPGKGLEWVSGISWNRGSIGYADSVKGRFTISRDNAKNSLYLQMSSLRAEDTALYYCAKDGERWDSVVVPSARNGMDVWGQGTTVTVSS
VL: QSVLTQPPSVSGAPGQRVTISCTGSSSNIGAGYDVHWYQQLPGTAPKLLIYGNSNRPSGVPDRFSGSKSGTSASLAITGLQAEDEADYYCQSYDSSLSGSYVFGTGTKVTVLG
B8: mAb10937 (antibody, V domains shown)
VH: QITLKESGPTLVKPTQTLTLTCTFSGFSLSTNVVGVGWIRQPPGKALEWLALIYWNDDKRYSPSLKSRLTITKDTSKNQVVLTMTNMDPVDTATYYCAHGPTGDYFDYWGQGTLVTVSS
VL: not shown
B9: mAb10971 (antibody, V domains shown)
VH: EVQLVESGGGLIQPGGSLRLSCAASGVTVSSNYMSWVRQAPGKGLEWVSVIYSGGSTFYSDSVKGRFSISRDNSKNTLYLQMNSLRAEDTAVYYCARDLYYYGMDVWGQGTTVTVSS
VL: DIQLTQSPSFLSASVGDRVTITCRASQGISTYLAWYQQKPGKAPKLLIYAASTLQSGVPSRFSGSGSGTEFTLTISSLQPEDFATYYCQQLDSYPGLTFGGGTKVEIKR
B10: mAb10966 (antibody, V domains shown)
VH: EVQLVESGGGLVQPGGSLRLSCAASGLTVSSNYMSWVRQAPGKGLEWVSVIYSGGSTFYADSVKGRFTISRDNSKNTLYLQMNSLRPEDTAVYYCAREGRIAATGYGMDVWGQGTTVTVSS
VL: not shown
B11: mAb10934 (antibody, V domains shown)
VH: not shown
VL: DIQMTQSPSSLSASVGDRVTITCQASQDIWNYINWYQQKPGKAPKLLIYDASNLKTGVPSRFSGSGSGTDFTFTISSLQPEDIATYYCQQHDDLPPTFGQGTKVEIKR
B12: mAb10967 (antibody, V domains shown)
VH: EVQLVESGGGLVQPGGSLRLSCAASGFTVSSNYMSWVRQAPGKGLEWVSVIYPGGSTFYADSVKGRFTISRDNSKNTLYLQMNSLRAEDTAVYYCARDQRDFAWGQGTLVTVSS
VL: DIQMTQSPSSLSASVGDRVTITCQASQDISNYLNWYQQKPGKAPKLLIYDASNLETGVPSRFSGSGSGTDFTFTISGLQPEDIATYYCQQYDNLPPTFGQGTRLEIKR
B13: mAb10938 (antibody, V domains shown)
VH: EVQLVESGGGLVQPGGSLRLSCAVSGFTVSSNYMSWVRQAPGKGLEWVSLIYSGGSTFYADSVKGRFTISRHNSKNTLYLQMNSLRAEDTAVYYCAREGGYSYDYNYWGQGTLVTVSS
VL: DIQMTQSPSSLSASVGDRVTITCQASQDIRNYLNWYQQKPGKAPKLLIYDASNLETGVPSRFSGIGSGTDFTFTISSLQPEDIATYYCQQYDNLPITFGQGTRLEIKR
B14: mAb10935 (antibody, V domains shown)
VH: EVQLVESGGGLVQPGGSLRLSCAASGFTVSSNYMSWVRQAPGKGLEWVSLIYSGGSTYYADSVKGRFTISRHNSKNTLYLQMNSLRSEDTAVYYCARVPLGDYYYGMDVWGQGTTVTVSS
VL: DIQMTQSPSSLSASVGDRVTITCQASQDINKYLNWYQQKPGKAPKLLIYDASNLETGVPSRFSGSGSGTDFTFTISSLQPEDIATYYCQQSDNLPLTFGGGTKVEIKR
B15: mAb10984 (antibody, V domains shown)
VH: EVQLVESGGGLVQPGGSLRLSCAASGLTVNRNYMSWVRQAPGKGLEWVSLIYSGGSTYYADSVKGRFTISRDNSKNTLYLQMNSLRLEDTAVYYCARGELGIPYGMDVWGQGTTVTVSS
VL: QSVLTQPPSVSAAPGQKVTISCSGSSSNIGNNYVSWYQQLPGTAPKLLIYDNNKRPSGIPDRFSGSKSGTSATLGITGLQTGDEADYYCGTWDSSLSAGVFGGGTKLTVLG
B16: mAb10939 (antibody, V domains shown)
VH: EVQLVESGGGLVQPGGSLRLSCAASGLTVSSNYMNWVRQVPGKGLEWVSVIYSGGSKFYVDSVKGRFTISRHNSKNTLYLQMNSLRPEDTAVYYCTRDAQYYGMDVWGQGTTVTVSS
VL: DIQMTQSPSSLSASVGDRVTITCRASQSISTYLHWYQQKPGEAPKLLIYAASSLQSGVPSRFSGSGSGTDFTLTISSLQPEDFATYYCQQSYSTPPEIFGQGTKLEIKR
B17: mAb10913 (antibody, V domains shown)
VH: EVQLVESGGGLVQPGGSLRLSCAASGFTFRNYEMNWVRQAPGKGLEWVSYITSSGSTMYYADSVKGRFTISRDNAKNSLYLQMNSLRAEDTAVYYCARDGFYYYYAMDVWGQGTTVTVSS
VL: QSVLTQPPSVSAAPGQKVTISCSGSSSNIGNNYVSWYQQLPGTAPKLLIYDNNKRPSGIPDRFSGSKSGTSATLGITGLQTGDEADYYCGTWDSSLSVGRVFGTGTKVTVLG
B18: mAb10921 (antibody, V domains shown)
VH: EVQLVESGGGLVQPGGSLRLSCAASGITVSSNYMSWVRQAPGKGLEWVSVIYSGGSTFYADSVKGRFTISRHNSKNTLYLQMNSLRAEDTAVYYCARERNFDAFDIWGQGTMVTVSS
VL: DIQMTQSPSSVSASVGDRVTITCRASQGISSWLAWYQQKPGKAPKLLIYAASSLQSGVPSRFSGSGSGTDFTLTISSLQPEDFATYYCQQANSFPLFTFGPGTKVDIKR
B19: mAb10932 (antibody, V domains shown)
VH: EVQLVESGGGLVQSGGSLRLSCAASGLTVSSNYMSWVRQAPGKGLEWVSVIYSGGSTFYSDSVKGRFTISRHNSKNTLYLQMNSLRAEDTAVYYCARARGDAFDIWGQGTMVTVSS
VL: not shown
B20: mAb10920 (antibody, V domains shown)
VH: QVQLVESGGGVVQPGRSLRLSCAASGFTFSYYGMHWVRQAPGKGLEWVAVIWYDGSNKFYADSVKGRFTISRDNSKNTLYLQMNSLRAEDTAVYYCAAARPGYYYGMDVWGQGTTVTVSS
VL: DIQMTQSPSSLSASVGDRVTITCRASQGISNYLAWFQQKPGKAPNSLIYAASSLQRGVPSKFSGSGSGTDFTLTISSLQPEDFATYYCQQYNSYPRTFGQGTKVEIKR
B21: mAb10969 (antibody, V domains shown)
VH: QVQLVESGGGVVQPGRSLRLSCAASGFTFSSYAMHWVRQAPGKGLEWVAVISYDGSNKYYADSVKGRFTISRDNSKNTLYLQMNSLRAEDTAVYYCARDGRTITMVRGVIDDAFDIWGQGTMVTVSS
VL: not shown
B22: mAb10989 (antibody, V domains shown)
VH: QVQLVQSGAEVKKPGASVKVSCKASGYIFTGYYMHWVRQAPGQGLEWMGWINPNSGGANYAQKFQGRVTLTRDTSITTVYMELSRLRFDDTAVYYCARGSRYDWNQNNWFDPWGQGTLVTVSS
VL: QSALTQPASVSGSPGQSITISCTGTSSDVGTYNYVSWYQQHPGKAPKLMIFDVSNRPSGVSDRFSGSKSGNTASLTISGLQAEDEADYYCSSFTTSSTVVFGGGTKLTVLG

What follows are binders tested against SARS-CoV-2 RBD extracellular domain expressed with a C-terminal mouse IgG2a (SARS-COV-2 RBD-mFc) (SARS-CoV-2).

**Q.** How did the Kd turn out when B1 was run?
**A.** ≤ 0.0431 nM

**Q.** What about the koff of the same binder?
**A.** ≤ 1e-05 s⁻¹

**Q.** What about the kon of the same binder?
**A.** 232000 M⁻¹ s⁻¹

**Q.** What about the t1/2 of the same binder?
**A.** ≥ 19.2 h

**Q.** Which results are given for B2?
**A.** Kd: ≤ 0.0153 nM; koff: ≤ 1e-05 s⁻¹; kon: 652000 M⁻¹ s⁻¹; t1/2: ≥ 19.2 h

**Q.** Which Kd does the source give for B3 here?
**A.** ≤ 0.007 nM

**Q.** What about the t1/2 of the same binder?
**A.** ≥ 19.2 h

**Q.** B4 was tested. Which Kd did it give?
**A.** 0.0435 nM

**Q.** What about the koff of the same binder?
**A.** 2.83e-05 s⁻¹

**Q.** What about the kon of the same binder?
**A.** 651000 M⁻¹ s⁻¹

**Q.** And the t1/2?
**A.** 6.79 h

**Q.** Which Kd does the source give for B5 here?
**A.** 0.0544 nM

**Q.** What about the koff of the same binder?
**A.** 1.69e-05 s⁻¹

**Q.** What about the kon of the same binder?
**A.** 310000 M⁻¹ s⁻¹

**Q.** What about the t1/2 of the same binder?
**A.** 11.4 h

**Q.** B6 was tested. Which Kd did it give?
**A.** ≤ 0.0158 nM

**Q.** What about the t1/2 of the same binder?
**A.** ≥ 19.2 h

**Q.** Which Kd does the source give for B7 here?
**A.** 0.0117 nM

**Q.** And the t1/2?
**A.** 15.2 h

**Q.** Which Kd does the source give for B8 here?
**A.** 0.114 nM

**Q.** And the koff?
**A.** 7.28e-05 s⁻¹

**Q.** What about the kon of the same binder?
**A.** 639000 M⁻¹ s⁻¹

**Q.** And the t1/2?
**A.** 2.64 h

**Q.** How did the Kd turn out when B9 was run?
**A.** ≤ 0.0253 nM

**Q.** And the koff?
**A.** ≤ 1e-05 s⁻¹

**Q.** What about the kon of the same binder?
**A.** 395000 M⁻¹ s⁻¹

**Q.** What about the t1/2 of the same binder?
**A.** ≥ 19.2 h

**Q.** Which Kd does the source give for B10 here?
**A.** ≤ 0.0249 nM

**Q.** What about the t1/2 of the same binder?
**A.** ≥ 19.2 h

**Q.** B11 was tested. Which Kd did it give?
**A.** 0.0832 nM

**Q.** What about the t1/2 of the same binder?
**A.** 1.64 h

**Q.** With B12 as the binder, how does the Kd read?
**A.** ≤ 0.0251 nM

**Q.** What about the t1/2 of the same binder?
**A.** ≥ 19.2 h

**Q.** B13 was tested. Which Kd did it give?
**A.** ≤ 0.0322 nM

**Q.** What about the t1/2 of the same binder?
**A.** ≥ 19.2 h

**Q.** Which Kd does the source give for B14 here?
**A.** ≤ 0.0261 nM

**Q.** What about the koff of the same binder?
**A.** ≤ 1e-05 s⁻¹

**Q.** What about the kon of the same binder?
**A.** 383000 M⁻¹ s⁻¹

**Q.** What about the t1/2 of the same binder?
**A.** ≥ 19.2 h

**Q.** For B15, which Kd is on record?
**A.** ≤ 0.0249 nM

**Q.** And the t1/2?
**A.** ≥ 19.2 h

**Q.** How did the Kd turn out when B16 was run?
**A.** 0.0387 nM

**Q.** What about the koff of the same binder?
**A.** 1.15e-05 s⁻¹

**Q.** What about the kon of the same binder?
**A.** 299000 M⁻¹ s⁻¹

**Q.** And the t1/2?
**A.** 16.7 h

**Q.** What does the source list for B17?
**A.** Kd: 0.244 nM; koff: 0.000152 s⁻¹; kon: 623000 M⁻¹ s⁻¹; t1/2: 1.27 h

**Q.** What does the source list for B18?
**A.** Kd: ≤ 0.0375 nM; koff: ≤ 1e-05 s⁻¹; kon: 266000 M⁻¹ s⁻¹; t1/2: ≥ 19.2 h

**Q.** Which results are given for B19?
**A.** Kd: ≤ 0.0413 nM; koff: ≤ 1e-05 s⁻¹; kon: 242000 M⁻¹ s⁻¹; t1/2: ≥ 19.2 h

**Q.** With B20 as the binder, how does the Kd read?
**A.** 0.416 nM

**Q.** What about the t1/2 of the same binder?
**A.** 0.658 h

**Q.** With B21 as the binder, how does the Kd read?
**A.** 0.0496 nM

**Q.** And the t1/2?
**A.** 12.7 h

**Q.** Which t1/2 does the source give for B22 here?
**A.** 2.07 h
